“Also recorded” adds a separate entry of the source.

One assay concerns the target T1, CD44-IgG1Fc (Homo sapiens, UniProt P16070).
T1 construct: purchased R & D systems
The assay is described as follows: Direct ELISA: binding of coated macromolecules to CD44-IgG1Fc. How it is done: High-binding microtiter plates (Corning, Sigma Aldrich, USA) were coated with rhPRG4 (Mr≅240 KDa), high molecular weight HA (HMW HA; Mr≅1,500 KDa) (R & D System, USA), medium molecular weight HA (MMW HA; Mr≅′300KDa) (R & D System) and vitronectin KDa) (Sigma Aldrich) at 400 μg/mL in PBS buffer (100 μL per well) overnight at 4° C. rhPRG4 is a full-length product produced by CHO-M cells (Lubris, Framingham, Mass., USA). Following washing with PBS+0.1% Tween 20, wells were blocked with 2% bovine serum albumin (BSA; 300 μL per well) for at least 2 hours at room temperature. CD44-IgG1Fc (R & D systems) or IgG1Fc (R & D systems), each at 1 μg/mL (100 μl per well), were added to the plate and incubated for 60 min at room temperature. Following washing with PBS+0.1% tween 20, anti-IgG1Fc-HRP (Sigma Aldrich) was added at 1:10,000 dilution (100 μL per well) and incubated for 60 min at room temp. Following washing with PBS+0.1% tween 20, the assay was developed using 1-step Turbo TMB ELISA reagent (ThermoScientific, USA) and absorbance was measured at 450 nm. The data represents an average of 4 independent assays, each with triplicate wells per group.
The concentration-dependent binding of rhPRG4, HMW HA and MMW HA to CD44 was performed by coating microtiter plates with 400, 200, 100, 20, 4, 2 and 0.1 μg/mL of the macromolecules. The assay was performed as described above. The absorbance values in the IgG1Fc wells were subtracted from the absorbance values in the CD44 IgG1Fc wells and the corrected CD44 IgG1Fc absorbance values were normalized to those of the 400 μg/mL rhPRG4 group and data was expressed as percentage binding to CD44. The concentration-dependent binding of rhPRG4, HMW HA and MMW HA to recombinant CD44 is depicted in FIG. 1B. […] The data represents an average of 4 independent assays, each with triplicate wells per group.
rhPRG4 was digested using sialidase A (Prozyme, USA), O-glycosidase (New England Biolabs, USA) or a combination of sialidase A and O-glycosidase for 16 hours at 37° C. In the sialidase A digestion, 12 μL of the enzyme (1U/200 μL) was added to rhPRG4 in a total reaction volume of 180 μL and a rhPRG4 final concentration of 300 μg/mL. In the O-glycosidase digestion, 4.8 μL of the enzyme (40million units/mL) was added to rhPRG4 in a total reaction volume of 180 μL and a rhPRG4 final concentration of 300 μg/mL under non-denaturing conditions. In the sialidase-A and O-glycosidase digestion, the enzymes were used in volumes identical to the ones stated above and incubated with rhPRG4 in a total reaction volume and final rhPRG4 concentration as stated above. The effect of sialidase-A and O-glycosidase digestions on rhPRG4 apparent molecular weight was determined by SDS-PAGE using 4-12% Bis-Tris gel (NuPage, life technologies, USA). A total of 20 μL of rhPRG4 or enzyme-digested rhPRG4 was run under reducing conditions ([…] for 60 min) followed by staining using Gelcode Blue Stain (Thermo Scientific, USA). Binding of enzymatically digested rhPRG4 to CD44 was compared to undigested rhPRG4 using the direct ELISA approach described above and using an rhPRG4 coating concentration of 30 μg/mL. Data represents the average of 4 independent experiments, each with triplicate wells per group.
On the technique in general: ELISA stands for enzyme-linked immunosorbent assay.

Another assay has as its system Smad2. The assay is described as follows: phospho-Smad2 immunoblotting. The class given is cell-based, human. The following applies: 100 pM TGFβ; 100 μg/mL rhPRG4; 12 h. How it is done: Cells were washed with PBS to remove all growth media. Appropriate volume of TNTE lysis buffer (50 mM Tris, 150 mM NaCl, 1 mM EDTA, 0.5% [v/v] Triton-X-100) containing protease and phosphatase inhibitors, was added to the cell monolayer and incubated at 4° C. under vigorous shaking for 20 minutes. Lysates were then collected in microcentrifuge tubes and centrifuged at 13,000 g for 10 minutes at 4° C. 5 μL of the lysate were subjected to protein concentration determination using Bradford-based protein assays (Bio-Rad Laboratories, Canada). Lysates were boiled for 3 minutes at 95° C. in dithiothreitol (DTT)-containing Laemmli sample buffer. For immunoprecipitation analyses, lysates were incubated with appropriate antibodies at 4° C. with gentle rocking for 3 h after which immunocomplexes were incubated with Protein G-conjugated agarose beads (UBPBio, USA) at 4° C. with gentle rocking for 3 h. Finally, the beads were washed with TNTE wash buffer (0.1% [v/v] Triton-X-100) and boiled for 5 minutes at 95° C. in dithiothreitol (DTT) containing Laemmli sample buffer. Immunoprecipitates and input lysates were then resolved by sodium dodecyl sulfate-polyacrylamide electrophoresis (SDS-PAGE) and transferred onto a nitrocellulose membrane (Bio-Rad Laboratories, Canada). […] Densitometric analyses were performed using Quantity One software (Bio-Rad Laboratories, Canada).
On the technique in general: A western blot detects proteins with antibodies after separation by electrophoresis.

A further assay relates to Hep3B. The assay is described as follows: 72-hour proliferation assay, Hep3B. It is filed as cell-based, human. The following applies: only at the highest rhPRG4 concentrations; drug 2.5 μM. As to the method:
Proliferation assay: In 100 μl complete medium, 3,000 cells were seeded in wells of a 96-well plate and left overnight to allow complete attachment. The next day (at time t=0 hours), the medium was removed and replaced with 100 μl of fresh medium in the presence/absence of Sorafenib (2.5 μM), Regorafenib (2.5 μM), rhPRG4 (12.5 to 100 μg/ml). Dimethyl sulfoxide (DMSO) and PBS+0.01% Tween-20 were used as vehicles of Sorafenib/Regorafenib, and rhPRG4, respectively. Cells in triplicate wells for each cell line were fixed at t=0 hours with 4% paraformaldehyde (PFA, pH 7.6, 10 min incubation), then stained with crystal violet (CV) and thoroughly washed to remove the excess staining. After 72 hours, the cells were fixed by adding 100 μl of 4% PFA directly to the medium (2% final PFA concentration, 20 min incubation), and processed for CV staining as previously described. Then, 100 or 200 μl of 1% sodium dodecyl-sulphate were added to the wells and the plates were left under shaking until complete CV release from stained cells. Optical density was at 595 nm wavelength measured using a plate reader.

T1 sequence (P16070 with tags, fused parts or gaps limits assumed): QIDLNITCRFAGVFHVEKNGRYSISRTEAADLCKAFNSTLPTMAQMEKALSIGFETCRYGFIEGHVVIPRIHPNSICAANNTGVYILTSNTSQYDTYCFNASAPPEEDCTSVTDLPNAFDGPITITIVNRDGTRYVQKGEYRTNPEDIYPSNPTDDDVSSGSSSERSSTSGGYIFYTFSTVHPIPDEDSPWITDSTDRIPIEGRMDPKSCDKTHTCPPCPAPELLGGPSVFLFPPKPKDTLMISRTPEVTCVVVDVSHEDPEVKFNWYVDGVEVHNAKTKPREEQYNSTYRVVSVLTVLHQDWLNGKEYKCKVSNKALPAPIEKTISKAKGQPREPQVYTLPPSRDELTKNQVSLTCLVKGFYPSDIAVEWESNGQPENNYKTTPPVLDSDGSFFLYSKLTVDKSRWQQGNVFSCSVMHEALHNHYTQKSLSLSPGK

With “rhPRG4: full-length recombinant human PRG4 (lubricin) glycoprotein produced by CHO-M cells; residues 25-1404 of SEQ ID NO:1”, the “concentration-dependent binding to CD44, affinity” value in the assay with CD44-IgG1Fc is “comparable affinity to HMW HA”. For the same substance, the “percentage CD44 binding between rhPRG4, HMW HA and MMW HA-coated wells” value with CD44-IgG1Fc (0.1 μg/mL coating) was “no significant differences”. Also, the “percentage recombinant CD44 binding compared to MMW HA coated wells” value with CD44-IgG1Fc (200 μg/mL coating, p<0.001) is given as “significantly higher”. In addition, the “percentage recombinant CD44 binding compared to HMW HA or MMW HA-coated wells” value in the assay with CD44-IgG1Fc (400, 100, 20, 4 and 2 μg/mL coating, p<0.001) is recorded as “significantly higher”. Besides, in the assay with CD44-IgG1Fc (wells coated at 400 μg/mL, CD44-IgG1Fc or IgG1Fc at 1 μg/mL), the “450 nm absorbance in the CD44-IgG1Fc group vs the IgG1Fc group” value was “significantly higher”. In addition, the “TGFβ-induced phosphorylation of Smad2” value in the assay on Smad2 was “did not appreciably alter TGFβ-induced phosphorylation of Smad2; also recorded: did not reduce TGFβ-induced Smad2 phosphorylation”. In addition, the rhPRG4-drug synergistic effect entry in the assay on Hep3B was “present during Hep3B proliferation, even if lower”.

These data come from US20220332839A1, “USE OF PRG4 TO TREAT CANCER” (Lubris LLC, priority 2019, published 2022).
